The record followed here is the Human Domainome abundance scans (Beltran et al. 2025).

The chains are these.
B1: Friend leukemia integration 1 transcription factor, residues 116 to 197; numbered along this chain, Q01543 (parent)
chain: NMTTNERRVIVPADPTLWTQEHVRQWLEWAIKEYSLMEIDTSFFQNMDGKELCKMNKEDFLRATTLYNTEVLLSHLSYLRES

± gives the uncertainty stated by the source.

The series covers variants of B1. Briefly: abundance fitness (aPCA) (normalised: wild type 0, dead -1); higher = more abundant; growth selection in yeast, the domain comes from the species named. To be noted: Homo sapiens.
Take NMTTNERRVIVPADPTLWTQEHVRQWLEWAIKKYSLMEIDTSFFQNMDGKELCKMNKEDFLRATTLYNTEVLLSHLSYLRES: the abundance fitness is -0.021 ± 0.11.

For NMTTNERRVIVPADPTLWTQEHVRQWLEWAIKGYSLMEIDTSFFQNMDGKELCKMNKEDFLRATTLYNTEVLLSHLSYLRES, the abundance fitness was -0.8 ± 0.14.

As to NMTTNERRVIVPADPTLWTQEHVRQWLEWAIKVYSLMEIDTSFFQNMDGKELCKMNKEDFLRATTLYNTEVLLSHLSYLRES, the abundance fitness was -0.435 ± 0.12.

For NMTTNERRVIVPADPTLWTQEHVRQWLEWAIKWYSLMEIDTSFFQNMDGKELCKMNKEDFLRATTLYNTEVLLSHLSYLRES, the abundance fitness was -0.382 ± 0.08.

As to NMTTNERRVIVPADPTLWTQEHVRQWLEWAIKLYSLMEIDTSFFQNMDGKELCKMNKEDFLRATTLYNTEVLLSHLSYLRES, the abundance fitness was -0.981 ± 0.13.

Regarding NMTTNERRVIVPADPTLWTQEHVRQWLEWAIKIYSLMEIDTSFFQNMDGKELCKMNKEDFLRATTLYNTEVLLSHLSYLRES, the abundance fitness is -0.437 ± 0.4.

On to NMTTNERRVIVPADPTLWTQEHVRQWLEWAIKRYSLMEIDTSFFQNMDGKELCKMNKEDFLRATTLYNTEVLLSHLSYLRES, for which the abundance fitness is -0.06 ± 0.058.

As for NMTTNERRVIVPADPTLWTQEHVRQWLEWAIKTYSLMEIDTSFFQNMDGKELCKMNKEDFLRATTLYNTEVLLSHLSYLRES, the abundance fitness is -0.243 ± 0.089.

As for NMTTNERRVIVPADPTLWTQEHVRQWLEWAIKYYSLMEIDTSFFQNMDGKELCKMNKEDFLRATTLYNTEVLLSHLSYLRES, the abundance fitness was -0.278 ± 0.31.

NMTTNERRVIVPADPTLWTQEHVRQWLEWAIKFYSLMEIDTSFFQNMDGKELCKMNKEDFLRATTLYNTEVLLSHLSYLRES: the abundance fitness was -0.803 ± 0.37.

As to NMTTNERRVIVPADPTLWTQEHVRQWLEWAIKHYSLMEIDTSFFQNMDGKELCKMNKEDFLRATTLYNTEVLLSHLSYLRES, the abundance fitness is -0.204 ± 0.23.

As for NMTTNERRVIVPADPTLWTQEHVRQWLEWAIKEYSDMEIDTSFFQNMDGKELCKMNKEDFLRATTLYNTEVLLSHLSYLRES, the abundance fitness was -0.521 ± 0.19.

In the case of NMTTNERRVIVPADPTLWTQEHVRQWLEWAIKEYSHMEIDTSFFQNMDGKELCKMNKEDFLRATTLYNTEVLLSHLSYLRES, the abundance fitness was -0.521 ± 0.37.

For NMTTNERRVIVPADPTLWTQEHVRQWLEWAIKEYSGMEIDTSFFQNMDGKELCKMNKEDFLRATTLYNTEVLLSHLSYLRES, the abundance fitness is -0.467 ± 0.086.

For NMTTNERRVIVPADPTLWTQEHVRQWLEWAIKEYSCMEIDTSFFQNMDGKELCKMNKEDFLRATTLYNTEVLLSHLSYLRES, the abundance fitness is -0.769 ± 0.28.

In the case of NMTTNERRVIVPADPTLWTQEHVRQWLEWAIKEYSFMEIDTSFFQNMDGKELCKMNKEDFLRATTLYNTEVLLSHLSYLRES, the abundance fitness is -0.195 ± 0.17.

For the variant NMTTNERRVIVPADPTLWTQEHVRQWLEWAIKEYSEMEIDTSFFQNMDGKELCKMNKEDFLRATTLYNTEVLLSHLSYLRES, the abundance fitness is -0.605 ± 0.14.

On to NMTTNERRVIVPADPTLWTQEHVRQWLEWAIKEYSAMEIDTSFFQNMDGKELCKMNKEDFLRATTLYNTEVLLSHLSYLRES, for which the abundance fitness is -0.83 ± 0.14.

Consider NMTTNERRVIVPADPTLWTQEHVRQWLEWAIKEYHLMEIDTSFFQNMDGKELCKMNKEDFLRATTLYNTEVLLSHLSYLRES, for which the abundance fitness was -0.132 ± 0.19.

Regarding NMTTNERRVIVPADPTLWTQEHVRQWLEWAIKEYTLMEIDTSFFQNMDGKELCKMNKEDFLRATTLYNTEVLLSHLSYLRES, the abundance fitness was -0.021 ± 0.068.

Regarding NMTTNERRVIVPADPTLWTQEHVRQWLEWAIKEYGLMEIDTSFFQNMDGKELCKMNKEDFLRATTLYNTEVLLSHLSYLRES, the abundance fitness amounted to 0.073 ± 0.07.

For NMTTNERRVIVPADPTLWTQEHVRQWLEWAIKEYMLMEIDTSFFQNMDGKELCKMNKEDFLRATTLYNTEVLLSHLSYLRES, the abundance fitness is -0.271 ± 0.073.

For the variant NMTTNERRVIVPADPTLWTQEHVRQWLEWAIKEYNLMEIDTSFFQNMDGKELCKMNKEDFLRATTLYNTEVLLSHLSYLRES, the abundance fitness worked out at 0.011 ± 0.24.

For NMTTNERRVIVPADPTLWTQEHVRQWLEWAIKEYQLMEIDTSFFQNMDGKELCKMNKEDFLRATTLYNTEVLLSHLSYLRES, the abundance fitness is -0.105 ± 0.12.

NMTTNERRVIVPADPTLWTQEHVRQWLEWAIKEYLLMEIDTSFFQNMDGKELCKMNKEDFLRATTLYNTEVLLSHLSYLRES: the abundance fitness is -0.335 ± 0.069.

As to NMTTNERRVIVPADPTLWTQEHVRQWLEWAIKEYALMEIDTSFFQNMDGKELCKMNKEDFLRATTLYNTEVLLSHLSYLRES, the abundance fitness was -0.076 ± 0.063.

As to NMTTNERRVIVPADPTLWTQEHVRQWLEWAIKEYVLMEIDTSFFQNMDGKELCKMNKEDFLRATTLYNTEVLLSHLSYLRES, the abundance fitness is -0.405 ± 0.08.

For the variant NMTTNERRVIVPADPTLWTQEHVRQWLEWAIKEYRLMEIDTSFFQNMDGKELCKMNKEDFLRATTLYNTEVLLSHLSYLRES, the abundance fitness was -0.156 ± 0.066.

With NMTTNERRVIVPADPTLWTQEHVRQWLEWAIKEYELMEIDTSFFQNMDGKELCKMNKEDFLRATTLYNTEVLLSHLSYLRES, the abundance fitness is -0.101 ± 0.08.

Turning to NMTTNERRVIVPADPTLWTQEHVRQWLEWAIKEYCLMEIDTSFFQNMDGKELCKMNKEDFLRATTLYNTEVLLSHLSYLRES, the abundance fitness is -0.183 ± 0.18.

As for NMTTNERRVIVPADPTLWTQEHVRQWLEWAIKEYWLMEIDTSFFQNMDGKELCKMNKEDFLRATTLYNTEVLLSHLSYLRES, the abundance fitness was -0.509 ± 0.14.

Turning to NMTTNERRVIVPADPTLWTQEHVRQWLEWAIKEYDLMEIDTSFFQNMDGKELCKMNKEDFLRATTLYNTEVLLSHLSYLRES, the abundance fitness is -0.02 ± 0.16.

With NMTTNERRVIVPADPTLWTQEHVRQWLEWAIKEYFLMEIDTSFFQNMDGKELCKMNKEDFLRATTLYNTEVLLSHLSYLRES, the abundance fitness is -0.33 ± 0.15.

Regarding NMTTNERRVIVPADPTLWTQEHVRQWLEWAIKEYPLMEIDTSFFQNMDGKELCKMNKEDFLRATTLYNTEVLLSHLSYLRES, the abundance fitness is -0.228 ± 0.079.
